Test results reported in patent US20170051042A1.

Tests used:
[1] = molecular target: purified GPIIb-IIIa (Innovative Research), immobilized (UniProt P08514); experiment: solid phase competition of 3.5 nM biotinylated fibrinogen on coated GPIIb-IIIa, N=4
[2] = molecular target: GPIIb/IIIa on mouse platelets (mouse) (UniProt Q9QUM0); experiment: mouse platelet depletion assay, unbound FVIII activity in supernatant; the filing calls this non-specific binding, not occurring through the peptide
[3] = molecular target: GPIIb/IIIa on human platelets (human) (UniProt P08514); experiment: platelet depletion assay, 2.5 nM, plasma lacking FVIII and vWF (condition C); the filing calls this non-specific binding to platelets, not through GPIIb/IIIa

Chain of GPIIb/IIIa on mouse platelets (mouse) (Q9QUM0 32-1033, chain 1 of 2): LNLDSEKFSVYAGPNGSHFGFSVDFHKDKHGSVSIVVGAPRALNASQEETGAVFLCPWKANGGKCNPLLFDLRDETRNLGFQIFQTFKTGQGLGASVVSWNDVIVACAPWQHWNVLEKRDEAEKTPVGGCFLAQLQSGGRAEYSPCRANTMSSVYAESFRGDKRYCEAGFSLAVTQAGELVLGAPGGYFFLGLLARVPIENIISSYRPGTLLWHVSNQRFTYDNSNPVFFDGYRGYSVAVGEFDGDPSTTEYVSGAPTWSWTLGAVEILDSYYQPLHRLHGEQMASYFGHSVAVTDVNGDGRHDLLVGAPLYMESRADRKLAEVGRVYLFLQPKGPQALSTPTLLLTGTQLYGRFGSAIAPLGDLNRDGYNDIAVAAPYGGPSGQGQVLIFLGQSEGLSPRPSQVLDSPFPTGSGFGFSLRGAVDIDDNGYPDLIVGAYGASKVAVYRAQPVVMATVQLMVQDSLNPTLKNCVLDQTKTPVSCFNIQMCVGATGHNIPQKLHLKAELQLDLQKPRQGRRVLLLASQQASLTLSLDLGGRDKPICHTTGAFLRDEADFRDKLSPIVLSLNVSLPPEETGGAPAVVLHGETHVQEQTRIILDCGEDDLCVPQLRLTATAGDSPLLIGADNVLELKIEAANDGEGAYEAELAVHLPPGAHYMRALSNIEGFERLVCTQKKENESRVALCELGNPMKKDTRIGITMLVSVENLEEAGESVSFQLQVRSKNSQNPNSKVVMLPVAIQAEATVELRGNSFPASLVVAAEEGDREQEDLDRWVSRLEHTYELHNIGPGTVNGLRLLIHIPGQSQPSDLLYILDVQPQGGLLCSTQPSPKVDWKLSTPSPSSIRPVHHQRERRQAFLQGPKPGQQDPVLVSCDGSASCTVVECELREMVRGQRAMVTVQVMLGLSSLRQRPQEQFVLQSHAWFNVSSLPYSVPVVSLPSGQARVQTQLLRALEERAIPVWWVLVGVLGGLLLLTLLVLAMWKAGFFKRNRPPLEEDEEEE
Chain of GPIIb/IIIa on mouse platelets (mouse) (O54890 26-787, chain 2 of 2, further chain): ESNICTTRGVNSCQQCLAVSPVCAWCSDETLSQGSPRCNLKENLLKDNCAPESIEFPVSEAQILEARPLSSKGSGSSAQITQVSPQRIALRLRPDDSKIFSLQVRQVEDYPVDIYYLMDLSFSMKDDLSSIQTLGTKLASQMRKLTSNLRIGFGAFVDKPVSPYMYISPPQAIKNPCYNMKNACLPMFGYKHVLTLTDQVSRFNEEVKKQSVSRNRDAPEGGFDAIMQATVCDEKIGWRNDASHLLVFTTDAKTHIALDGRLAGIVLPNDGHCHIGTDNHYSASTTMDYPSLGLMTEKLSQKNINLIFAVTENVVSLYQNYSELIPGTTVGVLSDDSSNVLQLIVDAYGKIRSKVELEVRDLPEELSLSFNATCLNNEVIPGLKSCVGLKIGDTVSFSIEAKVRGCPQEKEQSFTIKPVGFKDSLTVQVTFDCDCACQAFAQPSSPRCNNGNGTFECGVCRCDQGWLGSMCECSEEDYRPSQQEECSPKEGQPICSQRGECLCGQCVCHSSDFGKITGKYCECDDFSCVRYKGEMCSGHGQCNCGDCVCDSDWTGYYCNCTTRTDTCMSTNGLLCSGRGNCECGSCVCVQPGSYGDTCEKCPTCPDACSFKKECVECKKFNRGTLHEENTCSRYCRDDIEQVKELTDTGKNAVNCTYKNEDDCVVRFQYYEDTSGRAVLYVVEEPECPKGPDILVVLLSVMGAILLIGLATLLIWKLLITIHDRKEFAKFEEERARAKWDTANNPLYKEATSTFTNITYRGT

percent of activity bound [2] | percent of FVIII activity bound [3] | Substance | IC50 [1]
– | – | integrilin (peptide) | 1.3 nM
59% | 35% | unmodified recombinant FVIII (from UniProt P00451 20-2351) | –
